# Results: patent publication US7666989B2 (priority 2003, dated 2010)
# Where “and” joins values, the source holds several entries; their conditions need not be identical. Equal entries are not always repeated. Where two headings read alike, the source gives them in different places. Marks after values point to notes of the source that are not given here.
# B1: CPT: human recombinant circularly permuted TRAIL (CPT), which consists of 166 amino acid residues; SEQ ID No:2 (protein)
# chain: TLSSPNSKNEKALGRKINSWESSRSGHSFLSNLHLRNGELVIHEKGFYYIYSQTYFRFQEEIKENTKNDKQMVQYIYKYTSYPDPILLMKSARNSCWSKDAEYGLYSIYQGGIFELKENDRIFVSVTNEHLIDMDHEASFFGAFLVGGGGGGVAAHITGTRGRSNT
# modifications: Synthetically generated peptide
# Assays:
# [1] = system: human lung cancer NCI-H460; assay: Growth of human lung cancer NCI-H460 xenograft in nude mice; type: in vivo, BALB/c-nu nude mice; settings: ten injections; for Body Weight (g) Start / Tumor volume (mm^3) Start: baseline; for Inhibition rate (%): by tumor weight
# Procedure: The animals were then grouped based their tumor sizes. Each group included seven to eight animals.
# (§1) The evaluation standard for efficacy:
# (§2) T/C (%)>60 is ineffective;
# One additional injection was given at 80 mg/kg two weeks later. […] The treatment contained a total of ten injections.
# [2] = system: PC-3 (human pancreas cancer cell); assay: MTT cytotoxicity, PC-3; type: cell-based; settings: 4 days
# Description: (§3) Reagents: RPMI1640 is from GIBCO; MTT is from Bebco. Fetal bovine serum is purchased from Hangzhou SiJiQing Bioengineering Material Co. Ltd. (P. R. China).
# (§4) Cell lines: COLO 205 (human colon cancer cell), NCI-H460 (human lung cancer cell), RPMI 8226 (human multiple myeloma cell), U251 (human brain glioma cell) are from ATCC, USA. HL-60 (human promyelocytic leukemia cell), MDA-MB-231, MDA-MB-435 (human breast cancer cell), SCLC (human small-cell lung cancer cell), H125 (human lung cancer cell) and PC-3 (human […] cancer cell).
# (§5) The well-grown tumor cells were collected to prepare a cell suspension (1×10^4/ml) with RPMI 1640 medium containing 10% fetal bovine serum. The cell suspension was inoculated into a 96-well plate, 100 μL (containing 1000 tumor cells) per well. The plate was cultured in a 5% CO2 incubator at 37° C. for 24 hours, followed by addition of medicament.
# (§6) A blank control and a positive control using 5-fluorouracil or adriamycin are employed in the experiment. […]
# (§7) The supernatant was discarded. […] After gently shaking, the OD values were measured by a BIORAD 550 enzyme analyzer, with the detection wavelength being 540 nm and the reference wavelength being 450 nm.
# (§8) Dose-response curves were generated by plotting with the cell inhibition rates and different concentrations of medicament, and the half inhibitory concentrations (IC50) were calculated.
# [3] = system: MDA-MB-435 (human breast cancer cell); assay: MTT cytotoxicity, MDA-MB-435; type: cell-based; settings: 4 days
# Description: as §3, §4, §5, §6, §7, §8
# [4] = system: H125 (human lung cancer cell); assay: MTT cytotoxicity, H125; type: cell-based; settings: 4 days
# Description: as §3, §4, §5, §6, §7, §8
# [5] = system: RPMI 8226 (human multiple myeloma cell); assay: MTT cytotoxicity, RPMI 8226; type: cell-based; settings: 4 days
# Description: as §3, §4, §5, §6, §7, §8
# cancer cells = assay: Induction of apoptosis of cancer cells compared with wild type TRAIL; type: cell-based; settings: CPT versus wild type TRAIL
# [6] = system: human colon cancer COLO 205; settings: COLO 205 xenograft; for Body Weight (g) End / RTV / Tumor volume (mm^3) End / Tumor weight / Body Weight (g) Start / Tumor volume (mm^3) Start / Inhibition rate (%): 15 injections; for Body Weight (g) Start / Tumor volume (mm^3) Start: baseline; for Inhibition rate (%): by tumor weight
# Description: In this example, the animals used were BALB/c-nu nude mice, 6-8 weeks old. For each experiment, all animals were of the same sex.
# Tumor cell lines: human brain glioma U251, human lung cancer cell line NCI-H460, human colon cancer cell line COLO205 were inoculated from in vitro culture into nude mice subcutaneously, the tumors were subcultured and kept.
# Experimental Procedures: well-grown nude mice carrying well-grown tumors were selected and sacrificed by disjointing neck vertebra. The tumors were removed aseptically and were cut into pieces having a diameter of 2-3 mm by a scalpel. The pieces were inoculated into the axilla of nude mice subcutaneously by a needle. […] The length and width of tumors were measured by a vernier caliper. The animals were then grouped based their tumor sizes. Each group included seven to eight animals.
# The length, width of the tumor and the body weight of the mice were measured twice per week. The tumor volume (TV) and relative tumor volume (RTV) were calculated. A graph indicating the changes of tumor size was plotted. At the end of this experiment, the tumors were taken out and weighed after the mice were sacrificed, and the inhibition rates of the medicament on tumor growth were calculated.
# The formula for calculating tumor volume (TV) is: length×width^2÷2.
# The formula for calculating relative tumor volume (RTV) is: Vt/Vo (wherein Vo is the TV value measured when the administration is started, Vt is the TV value measured after that).
# T-test was used to determine the statistical difference of tumor weights, tumor volumes and RTV etc. between different groups of animal. The index used for evaluating the anti-tumor activity is the relative tumor growth rate T/C (%), the formula for which is: […]
# as §1, §2
# T/C (%)≦60 and P<0.05 after statistical analysis is effective.
# Injectable hydroxycamptothecin (trade name: Xi Su, Wuhan Lishizhen Pharmaceuticals Inc., Huangshi Lishizhen Pharmaceuticals Group, P. R. China) was used as positive control, administered by intraperitoneal injection at the dose of 1 mg/kg, once per day. The administration was terminated after 15 consecutive days of administration. […] A single administration of 80 mg/kg hydroxycamptothecin was further given after two weeks. CPT was given to three treatment groups at the doses of 1.7 mg/kg, 5.0 mg/kg, 15.0 mg/kg respectively by intraperitoneal injection, once per day. The treatment contained a total of 15 injections.
# [7] = system: COLO 205 (human colon cancer cell); assay: MTT cytotoxicity, COLO 205; type: cell-based; settings: 4 days
# Description: as §3, §4, §5, §6, §7, §8
# [8] = CPT 1.7 mg/kg i.p. once per day
# [9] = CPT 5.0 mg/kg i.p. once per day
molecule,measurement,setting,value
B1,Body Weight (g) End,[1]; [8],19.8 ± 1.6 g
same,RTV,[1]; [8],2.27 ± 1.13
same,T/C (%),[1]; [8],38.0%
same,Tumor volume (mm^3) End,[1]; [8],706 ± 170* mm^3
same,Tumor weight,[1]; [8],0.77 ± 0.19 g
same,Body Weight (g) Start,[1]; [8],20.1 ± 1.9 g
same,Tumor volume (mm^3) Start,[1]; [8],200 ± 103 mm^3
same,Inhibition rate (%),[1]; [8],52.2%
same,Body Weight (g) End,[1]; [9],18.5 ± 2.5 g
same,RTV,[1]; [9],1.49 ± 0.76
same,Tumor volume (mm^3) End,[1]; [9],469 ± 359** mm^3
same,Tumor weight,[1]; [9],0.41 ± 0.28 g
same,Body Weight (g) Start,[1]; [9],20.4 ± 1.9 g
same,Tumor volume (mm^3) Start,[1]; [9],187 ± 51 mm^3
same,Inhibition rate (%),[1]; [9],74.5%
same,Body Weight (g) End,[1]; CPT 15 mg/kg i.p. once per day,21.1 ± 1.7 g
same,RTV,[1]; CPT 15 mg/kg i.p. once per day,0.79 ± 0.25
same,Tumor volume (mm^3) End,[1]; CPT 15 mg/kg i.p. once per day,189 ± 102** mm^3
same,Tumor weight,[1]; CPT 15 mg/kg i.p. once per day,0.21 ± 0.10 g
same,Body Weight (g) Start,[1]; CPT 15 mg/kg i.p. once per day,20.9 ± 1.1 g
same,Tumor volume (mm^3) Start,[1]; CPT 15 mg/kg i.p. once per day,192 ± 63 mm^3
same,Inhibition rate (%),[1]; CPT 15 mg/kg i.p. once per day,87.0% and 88.8%
same,IC50,[2],0.067 ± 0.002 µg/mL
same,IC50,[3],0.008 ± 0.002 µg/mL
same,IC50,[4],0.085 ± 0.006 µg/mL
same,IC50,[5],0.824 ± 0.093 µg/mL
same,activity to induce apoptosis of cancer cells relative to wild type TRAIL,cancer cells,six to eleven times as strong
same,Body Weight (g) End,[6]; [8],20.6 ± 3.0 g
same,RTV,[6]; [8],1.62 ± 0.62
same,Tumor volume (mm^3) End,[6]; [8],582 ± 408** mm^3
same,Tumor weight,[6]; [8],0.40 ± 0.33 g
same,Body Weight (g) Start,[6]; [8],20.6 ± 1.1 g
same,Tumor volume (mm^3) Start,[6]; [8],205 ± 47 mm^3
same,Inhibition rate (%),[6]; [8],79.6%
same,Body Weight (g) End,[6]; [9],21.4 ± 1.2 g
same,RTV,[6]; [9],0.91 ± 0.35
same,Tumor volume (mm^3) End,[6]; [9],314 ± 175** mm^3
same,Tumor weight,[6]; [9],0.18 ± 0.15 g
same,Body Weight (g) Start,[6]; [9],20.2 ± 0.8 g
same,Tumor volume (mm^3) Start,[6]; [9],180 ± 63 mm^3
same,Inhibition rate (%),[6]; [9],90.8% and 90.9%
same,Body Weight (g) End,[6]; CPT 15 mg/kg i.p. once per day,21.1 ± 2.4 g
same,RTV,[6]; CPT 15 mg/kg i.p. once per day,0.33 ± 0.27
same,Tumor volume (mm^3) End,[6]; CPT 15 mg/kg i.p. once per day,52 ± 53** mm^3
same,Tumor weight,[6]; CPT 15 mg/kg i.p. once per day,0.05 ± 0.05 g
same,Body Weight (g) Start,[6]; CPT 15 mg/kg i.p. once per day,20.0 ± 0.5 g
same,Tumor volume (mm^3) Start,[6]; CPT 15 mg/kg i.p. once per day,192 ± 81 mm^3
same,Inhibition rate (%),[6]; CPT 15 mg/kg i.p. once per day,97.4% and 97.8%
same,fraction of animals in which no tumor was found,"[6]; high-dose CPT (15 mg/kg/day, 15 injections), four weeks after the administration was stopped",⅓
same,IC50,[7],0.006 ± 0 µg/mL
